Eight molecules from article PMC6510891, “Functional duplication of Rap1 in methylotrophic yeasts” can be followed below.

Series [1] deals with T1, HpRap1A (Hansenula polymorpha DL-1, UniProt W1Q7Z6 1-613).
T1 sequence: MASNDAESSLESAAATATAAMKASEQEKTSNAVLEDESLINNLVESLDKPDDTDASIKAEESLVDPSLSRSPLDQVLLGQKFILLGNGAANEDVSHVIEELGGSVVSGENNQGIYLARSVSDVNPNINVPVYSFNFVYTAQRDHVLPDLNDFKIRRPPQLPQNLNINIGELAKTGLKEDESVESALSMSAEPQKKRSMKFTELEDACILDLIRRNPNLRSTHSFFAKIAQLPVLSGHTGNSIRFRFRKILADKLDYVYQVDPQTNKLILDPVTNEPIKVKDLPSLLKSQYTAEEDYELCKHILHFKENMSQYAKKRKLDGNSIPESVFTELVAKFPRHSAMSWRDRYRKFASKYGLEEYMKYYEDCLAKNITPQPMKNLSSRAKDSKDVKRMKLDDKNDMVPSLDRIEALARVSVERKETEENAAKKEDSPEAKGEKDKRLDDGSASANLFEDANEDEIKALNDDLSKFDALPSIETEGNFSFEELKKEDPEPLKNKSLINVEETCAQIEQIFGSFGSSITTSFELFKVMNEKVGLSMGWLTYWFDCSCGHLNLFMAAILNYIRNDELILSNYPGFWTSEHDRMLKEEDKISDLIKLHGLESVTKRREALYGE
Put plainly: SPR; kinetic fit; equilibrium Kd 1.8±0.5; SPR: 10 mM HEPES-NaOH pH 7.5, 150 mM NaCl, 0.5 mM DTT, 0.05% Tween 20, 1 mg/ml BSA, 0.02 mg/ml salmon sperm DNA; competition 2 nM protein with 20 or 200 nM competitor. EMSA: 20 mM HEPES-NaOH pH 7.5, 50 mM NaCl, 0.2 mg/ml BSA, 5% glycerol, 0.1 mg/ml salmon sperm DNA, room temperature. The settings on record: protein: recombinant; 3' overhang 20 nt on strand 2. (In general: SPR reads the build-up and loss of mass on a sensor chip optically.)

Series [2] has as its target T2, HpRap1B (Hansenula polymorpha DL-1, UniProt W1QDN2 1-576).
T2 sequence: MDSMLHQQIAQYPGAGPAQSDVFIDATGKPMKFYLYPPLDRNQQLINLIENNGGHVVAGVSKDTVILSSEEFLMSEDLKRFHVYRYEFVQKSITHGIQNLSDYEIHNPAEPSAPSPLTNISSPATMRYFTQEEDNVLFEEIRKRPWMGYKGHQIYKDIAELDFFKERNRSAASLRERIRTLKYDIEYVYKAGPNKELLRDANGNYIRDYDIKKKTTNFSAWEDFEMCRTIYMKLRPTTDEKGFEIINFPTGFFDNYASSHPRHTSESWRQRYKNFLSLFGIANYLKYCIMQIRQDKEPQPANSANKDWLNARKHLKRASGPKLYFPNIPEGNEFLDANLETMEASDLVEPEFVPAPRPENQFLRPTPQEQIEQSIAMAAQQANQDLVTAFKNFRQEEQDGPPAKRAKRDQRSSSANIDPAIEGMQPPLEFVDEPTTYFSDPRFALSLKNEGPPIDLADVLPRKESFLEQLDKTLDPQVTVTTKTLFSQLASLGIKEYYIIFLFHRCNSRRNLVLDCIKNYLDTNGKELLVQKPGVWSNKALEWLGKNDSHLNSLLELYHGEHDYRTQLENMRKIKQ
Put plainly: SPR; kinetic fit; equilibrium Kd 1.9±0.1; SPR: 10 mM HEPES-NaOH pH 7.5, 150 mM NaCl, 0.5 mM DTT, 0.05% Tween 20, 1 mg/ml BSA, 0.02 mg/ml salmon sperm DNA; competition 2 nM protein with 20 or 200 nM competitor. EMSA: 20 mM HEPES-NaOH pH 7.5, 50 mM NaCl, 0.2 mg/ml BSA, 5% glycerol, 0.1 mg/ml salmon sperm DNA, room temperature. The settings on record: protein: recombinant; 3' overhang 20 nt on strand 2.

In series [3] the target is T2, HpRap1B. Put plainly: competition SPR; score +++ vs PICKU surface; SPR: 10 mM HEPES-NaOH pH 7.5, 150 mM NaCl, 0.5 mM DTT, 0.05% Tween 20, 1 mg/ml BSA, 0.02 mg/ml salmon sperm DNA; competition 2 nM protein with 20 or 200 nM competitor. EMSA: 20 mM HEPES-NaOH pH 7.5, 50 mM NaCl, 0.2 mg/ml BSA, 5% glycerol, 0.1 mg/ml salmon sperm DNA, room temperature. As to conditions: protein: recombinant; blunt. In general terms: In EMSA bound probe runs differently from free probe, usually more slowly.

For series [4], the target named is T1, HpRap1A. Put plainly: competition SPR; score - vs VIIrAbs surface; SPR: 10 mM HEPES-NaOH pH 7.5, 150 mM NaCl, 0.5 mM DTT, 0.05% Tween 20, 1 mg/ml BSA, 0.02 mg/ml salmon sperm DNA; competition 2 nM protein with 20 or 200 nM competitor. EMSA: 20 mM HEPES-NaOH pH 7.5, 50 mM NaCl, 0.2 mg/ml BSA, 5% glycerol, 0.1 mg/ml salmon sperm DNA, room temperature. As to conditions: protein: recombinant; blunt.

Series [5] addresses T1, HpRap1A. Put plainly: SPR; kinetic fit; equilibrium Kd 38±15; SPR: 10 mM HEPES-NaOH pH 7.5, 150 mM NaCl, 0.5 mM DTT, 0.05% Tween 20, 1 mg/ml BSA, 0.02 mg/ml salmon sperm DNA; competition 2 nM protein with 20 or 200 nM competitor. EMSA: 20 mM HEPES-NaOH pH 7.5, 50 mM NaCl, 0.2 mg/ml BSA, 5% glycerol, 0.1 mg/ml salmon sperm DNA, room temperature. As to conditions: protein: recombinant; 3' overhang 20 nt on strand 2.

The target in series [6] is T2, HpRap1B. Put plainly: EMSA; up to 250 nM protein, 50 nM DNA; SPR: 10 mM HEPES-NaOH pH 7.5, 150 mM NaCl, 0.5 mM DTT, 0.05% Tween 20, 1 mg/ml BSA, 0.02 mg/ml salmon sperm DNA; competition 2 nM protein with 20 or 200 nM competitor. EMSA: 20 mM HEPES-NaOH pH 7.5, 50 mM NaCl, 0.2 mg/ml BSA, 5% glycerol, 0.1 mg/ml salmon sperm DNA, room temperature. The settings on record: protein: recombinant; label: 5' FAM on strand 1; blunt.

In series [7] the target is T1, HpRap1A. The description is as above. As to conditions: protein: recombinant; label: 5' FAM on strand 1; blunt.
Series [8] concerns the target T2, HpRap1B. Put plainly: SPR; SPR: 10 mM HEPES-NaOH pH 7.5, 150 mM NaCl, 0.5 mM DTT, 0.05% Tween 20, 1 mg/ml BSA, 0.02 mg/ml salmon sperm DNA; competition 2 nM protein with 20 or 200 nM competitor. EMSA: 20 mM HEPES-NaOH pH 7.5, 50 mM NaCl, 0.2 mg/ml BSA, 5% glycerol, 0.1 mg/ml salmon sperm DNA, room temperature. As to conditions: protein: recombinant; 3' overhang 20 nt on strand 2.

The target of series [9] is T1, HpRap1A. Put plainly: SPR; kinetic fit; equilibrium Kd 12±3; SPR: 10 mM HEPES-NaOH pH 7.5, 150 mM NaCl, 0.5 mM DTT, 0.05% Tween 20, 1 mg/ml BSA, 0.02 mg/ml salmon sperm DNA; competition 2 nM protein with 20 or 200 nM competitor. EMSA: 20 mM HEPES-NaOH pH 7.5, 50 mM NaCl, 0.2 mg/ml BSA, 5% glycerol, 0.1 mg/ml salmon sperm DNA, room temperature. As to conditions: protein: recombinant; 3' overhang 20 nt on strand 2.

The target in series [10] is T1, HpRap1A. Put plainly: SPR; SPR: 10 mM HEPES-NaOH pH 7.5, 150 mM NaCl, 0.5 mM DTT, 0.05% Tween 20, 1 mg/ml BSA, 0.02 mg/ml salmon sperm DNA; competition 2 nM protein with 20 or 200 nM competitor. EMSA: 20 mM HEPES-NaOH pH 7.5, 50 mM NaCl, 0.2 mg/ml BSA, 5% glycerol, 0.1 mg/ml salmon sperm DNA, room temperature. As to conditions: protein: recombinant; 3' overhang 20 nt on strand 2.

Series [11] deals with T2, HpRap1B. Put plainly: SPR; kinetic fit; SPR: 10 mM HEPES-NaOH pH 7.5, 150 mM NaCl, 0.5 mM DTT, 0.05% Tween 20, 1 mg/ml BSA, 0.02 mg/ml salmon sperm DNA; competition 2 nM protein with 20 or 200 nM competitor. EMSA: 20 mM HEPES-NaOH pH 7.5, 50 mM NaCl, 0.2 mg/ml BSA, 5% glycerol, 0.1 mg/ml salmon sperm DNA, room temperature. As to conditions: protein: recombinant; 3' overhang 20 nt on strand 2.

For series [12], the target named is T1, HpRap1A. The description is as above. The settings on record: protein: recombinant; 3' overhang 20 nt on strand 2.
In series [13] the target is T2, HpRap1B. Put plainly: SPR; kinetic fit; equilibrium Kd 65±2; SPR: 10 mM HEPES-NaOH pH 7.5, 150 mM NaCl, 0.5 mM DTT, 0.05% Tween 20, 1 mg/ml BSA, 0.02 mg/ml salmon sperm DNA; competition 2 nM protein with 20 or 200 nM competitor. EMSA: 20 mM HEPES-NaOH pH 7.5, 50 mM NaCl, 0.2 mg/ml BSA, 5% glycerol, 0.1 mg/ml salmon sperm DNA, room temperature. As to conditions: protein: recombinant; 3' overhang 20 nt on strand 2.

Series [14] concerns the target T2, HpRap1B. Put plainly: SPR; kinetic fit; equilibrium Kd 1.7±0.2; SPR: 10 mM HEPES-NaOH pH 7.5, 150 mM NaCl, 0.5 mM DTT, 0.05% Tween 20, 1 mg/ml BSA, 0.02 mg/ml salmon sperm DNA; competition 2 nM protein with 20 or 200 nM competitor. EMSA: 20 mM HEPES-NaOH pH 7.5, 50 mM NaCl, 0.2 mg/ml BSA, 5% glycerol, 0.1 mg/ml salmon sperm DNA, room temperature. The settings on record: protein: recombinant; 3' overhang 20 nt on strand 2.

B1: RPL5a (dsDNA)
DNA 1: CTTGTGTGGTGCAGGGGTGGCAG
DNA 2: CTGCCACCCCTGCACCACACAAGCCTCTACGTCCTCCTGCTCC
Usually Kd stands for the constant that tells how readily two partners part at equilibrium. In the case of B1, the values for the Kd with HpRap1A [1] and with HpRap1B [2] were 1.4 ± 0.3 nM and 2 nM, respectively.

B2: PICKU (competitor) (dsDNA)
DNA 1: TGAACTAGGAGCGAGGTGTGTTAC
DNA 2: GTAACACACCTCGCTCCTAGTTCA
With B2, the binding result was “binds” with HpRap1B [3] and “no binding” with HpRap1A [4].

B3: SACCE (SPR) (dsDNA)
DNA 1: GTGTGTGGGTGTGTGGGTGTGTG
DNA 2: CACACACCCACACACCCACACACCCTCTACGTCCTCCTGCTCC
Take B3: the Kd in the series with HpRap1A [5] came out at 39 ± 15 nM.

B4: FAM-HANPO2 (dsDNA)
DNA 1: GGGTGGCGGGGTGGCG
DNA 2: CGCCACCCCGCCACCC
With B4, the results for the binding result with HpRap1B [6] and in the series with HpRap1A [7] were “binds” and “no binding”, respectively.

B5: RPS0a (dsDNA)
DNA 1: AGAGGGCTGTGCACGGATGCTAT
DNA 2: ATAGCATCCGTGCACAGCCCTCTCCTCTACGTCCTCCTGCTCC
Take B5: the binding result with HpRap1B [8] was “no binding”. Also, the equilibrium dissociation constant (Kd) in the series with HpRap1A [9] was determined as 10 ± 4 nM.

B6: PICKU (SPR) (dsDNA)
DNA 1: TGAACTAGGAGCGAGGTGTGTTAC
DNA 2: GTAACACACCTCGCTCCTAGTTCACCTCTACGTCCTCCTGCTCC
For the molecule B6, the binding result with HpRap1A [10] was “no binding”. The Kd in the series with HpRap1B [11] came out at 0.27 ± 0.08 nM.

B7: VIIrAbs (SPR) (dsDNA)
DNA 1: GGCAGGCGGTGTAGGGATGCGGC
DNA 2: GCCGCATCCCTACACCGCCTGCCCCTCTACGTCCTCCTGCTCC
Turning to B7, the Kd was determined as 0.28 ± 0.09 nM with HpRap1A [12] and 64 ± 2 nM in the series with HpRap1B [13].

B8: RPS0b (dsDNA)
DNA 1: ATTTCTTGGTGCGAGGGGGCTCT
DNA 2: AGAGCCCCCTCGCACCAAGAAATCCTCTACGTCCTCCTGCTCC
Turning to B8, the binding result with HpRap1A [10] was “no binding”. For the same molecule, the Kd in the series with HpRap1B [14] came out at 1.5 ± 0.4 nM.
